B1: huD2H3-V1 (antibody, human IgG1, kappa)
heavy: not shown
light: DIVLTQSPDSLAVSLGERATINCRASESVSLHGTRLMHWYQQKPGQPPKLLISLGSNLESGVPDRFSGSGSETDFTLTISSLQAEDVAVYFCQQSIEDPWTFGQGTKLEIKRTVAAPSVFIFPPSDEQLKSGTASVVCLLNNFYPREAKVQWKVDNALQSGNSQESVTEQDSKDSTYSLSSTLTLSKADYEKHKVYACEVTHQGLSSPVTKSFNRGEC
notes: Humanized D2H3, human IgG1/kappa
B2: huD2H3-V6 (antibody, human IgG1, kappa, V domains shown)
VH: EVQLVQSGAEVKKPGSSVKVSCKSSGYTFTNYWMHWVRQAPGQGLEWIGAIFPRNSETNYNQKFKARATLTADESTSTAYMELSSLRSEDTAVYFCTRNRYGLDYWGQGTLVTVSS
VL: DIVLTQSPDSLAVSLGERATINCRASESVSLHGTRLMHWYQQKPGQPPKLLISLGSNLESGVPDRFSGSGSETDFTLTISSLQAEDVAVYFCQQSIEDPWTFGQGTKLEIKR
notes: as for B1
B3: huD2H3-V4 (antibody, human IgG1, kappa, V domains shown)
VH: EVQLVQSGAEVKKPGSSVKVSCKSSGYTFTNYWMHWVRQAPGQGLEWIGAIFPRNSETNYNQKFKARVTLTADTSTSTAYMELSSLRSEDTAVYFCTRNRYGLDYWGQGTLVTVSS
VL: DIVLTQSPDSLAVSLGERATINCRASESVSLHGTRLMHWYQQKPGQPPKLLISLGSNLESGVPDRFSGSGSETDFTLTISSLQAEDVAVYFCQQSIEDPWTFGQGTKLEIKR
notes: as for B1
B4: huD2H3-V2 (antibody, human IgG1, kappa, V domains shown)
VH: EVQLVQSGAEVKKPGSSVKVSCKASGYTFTNYWMHWVRQAPGQGLEWIGAIFPRNSETNYNQKFKARATLTADTSTSTAYMELSSLRSEDTAVYFCTRNRYGLDYWGQGTLVTVSS
VL: DIVLTQSPDSLAVSLGERATINCRASESVSLHGTRLMHWYQQKPGQPPKLLISLGSNLESGVPDRFSGSGSETDFTLTISSLQAEDVAVYFCQQSIEDPWTFGQGTKLEIKR
notes: as for B1
B5: huD2H3-V3 (antibody, human IgG1, kappa, V domains shown)
VH: EVQLVQSGAEVKKPGSSVKVSCKSSGYTFTNYWMHWVRQAPGQGLEWMGAIFPRNSETNYNQKFKARATLTADTSTSTAYMELSSLRSEDTAVYFCTRNRYGLDYWGQGTLVTVSS
VL: DIVLTQSPDSLAVSLGERATINCRASESVSLHGTRLMHWYQQKPGQPPKLLISLGSNLESGVPDRFSGSGSETDFTLTISSLQAEDVAVYFCQQSIEDPWTFGQGTKLEIKR
notes: as for B1
B6: huD2H3-V5 (antibody, human IgG1, kappa, V domains shown)
VH: EVQLVQSGAEVKKPGSSVKVSCKSSGYTFTNYWMHWVRQAPGQGLEWIGAIFPRNSETNYNQKFKARATITADTSTSTAYMELSSLRSEDTAVYFCTRNRYGLDYWGQGTLVTVSS
VL: DIVLTQSPDSLAVSLGERATINCRASESVSLHGTRLMHWYQQKPGQPPKLLISLGSNLESGVPDRFSGSGSETDFTLTISSLQAEDVAVYFCQQSIEDPWTFGQGTKLEIKR
notes: as for B1
B7: huD2H3-V9 (antibody, human IgG1, kappa, V domains shown)
VH: EVQLVQSGAEVKKPGSSVKVSCKSSGYTFTNYWMHWVRQAPGQGLEWIGAIFPRNSETNYNQKFKARATLTADTSTSTAYMELSSLRSEDTAVYFCTRNRYGLDYWGQGTLVTVSS
VL: DIVLTQSPDSLAVSLGERATINCRASESVSLHGTRLMHWYQQKPGQPPKLLIYLGSNLESGVPDRFSGSGSETDFTLTISSLQAEDVAVYFCQQSIEDPWTFGQGTKLEIKR
notes: as for B1
B8: huD2H3-V11 (antibody, human IgG1, kappa, V domains shown)
VH: EVQLVQSGAEVKKPGSSVKVSCKSSGYTFTNYWMHWVRQAPGQGLEWIGAIFPRNSETNYNQKFKARATLTADTSTSTAYMELSSLRSEDTAVYFCTRNRYGLDYWGQGTLVTVSS
VL: DIVLTQSPDSLAVSLGERATINCRASESVSLHGTRLMHWYQQKPGQPPKLLISLGSNLESGVPDRFSGSGSETDFTLTISSLQAEDVAVYYCQQSIEDPWTFGQGTKLEIKR
notes: as for B1
B9: huD2H3-V8 (antibody, human IgG1, kappa)
heavy: not shown
light: DIVMTQSPDSLAVSLGERATINCRASESVSLHGTRLMHWYQQKPGQPPKLLISLGSNLESGVPDRFSGSGSETDFTLTISSLQAEDVAVYFCQQSIEDPWTFGQGTKLEIKRTVAAPSVFIFPPSDEQLKSGTASVVCLLNNFYPREAKVQWKVDNALQSGNSQESVTEQDSKDSTYSLSSTLTLSKADYEKHKVYACEVTHQGLSSPVTKSFNRGEC
notes: as for B1
B10: huD2H3-V7 (antibody, human IgG1, kappa, V domains shown)
VH: EVQLVQSGAEVKKPGSSVKVSCKSSGYTFTNYWMHWVRQAPGQGLEWIGAIFPRNSETNYNQKFKARATLTADTSTSTAYMELSSLRSEDTAVYYCTRNRYGLDYWGQGTLVTVSS
VL: DIVLTQSPDSLAVSLGERATINCRASESVSLHGTRLMHWYQQKPGQPPKLLISLGSNLESGVPDRFSGSGSETDFTLTISSLQAEDVAVYFCQQSIEDPWTFGQGTKLEIKR
notes: as for B1
B11: huD2H3-V10 (antibody, human IgG1, kappa, V domains shown)
VH: EVQLVQSGAEVKKPGSSVKVSCKSSGYTFTNYWMHWVRQAPGQGLEWIGAIFPRNSETNYNQKFKARATLTADTSTSTAYMELSSLRSEDTAVYFCTRNRYGLDYWGQGTLVTVSS
VL: DIVLTQSPDSLAVSLGERATINCRASESVSLHGTRLMHWYQQKPGQPPKLLISLGSNLESGVPDRFSGSGSGTDFTLTISSLQAEDVAVYFCQQSIEDPWTFGQGTKLEIKR
notes: as for B1
B12: huD2A4-V1 (antibody, human IgG1, kappa)
heavy: not shown
light: DIQMTQSPSSVSASVGDRVTITCLASQTIGTWLAWYQQKPGKSPKLLIYAATSLADGVPSRFSGSGSGTDFTLTISSLQPEDFATYYCQQVSSIPWTFGGGTKVEIKRTVAAPSVFIFPPSDEQLKSGTASVVCLLNNFYPREAKVQWKVDNALQSGNSQESVTEQDSKDSTYSLSSTLTLSKADYEKHKVYACEVTHQGLSSPVTKSFNRGEC
notes: Humanized D2A4, human IgG1/kappa
B13: huD2A4-V3 (antibody, human IgG1, kappa)
heavy: not shown
light: DIQMTQSPSSVSASVGDRVTITCLASQTIGTWLAWYQQKPGKSPKLLIYAATSLADGVPSRFSGSGSGTDFTLTISSLQPEDFATYYCQQVSSIPWTFGGGTKVEIKRTVAAPSVFIFPPSDEQLKSGTASVVCLLNNFYPREAKVQWKVDNALQSGNSQESVTEQDSKDSTYSLSSTLTLSKADYEKHKVYACEVTHQGLSSPVTKSFNRGEC
notes: as for B12
B14: huD2A4-V4 (antibody, human IgG1, kappa, V domains shown)
VH: EVQLVESGGGLVQPGGSLRLSCAASGFTFSSYTMSWVRQAPGKGLEWVATISGGGSNTYYPDSVKGRFTISRDNSKNTLYLQMNSLRAEDTAVYYCARQAFYSNYWYFDVWGAGTTVTVSS
VL: DIQMTQSPSSVSASVGDRVTITCLASQTIGTWLAWYQQKPGKAPKLLIYAATSLADGVPSRFSGSGSGTDFTLTISSLQPEDFATYYCQQVSSIPWTFGGGTKVEIKR
notes: as for B12
B15: huD2A4-V2 (antibody, human IgG1, kappa)
heavy: not shown
light: DIQMTQSPSSVSASVGDRVTITCLASQTIGTWLAWYQQKPGKSPKLLIYAATSLADGVPSRFSGSGSGTDFTLTISSLQPEDFATYYCQQVSSIPWTFGGGTKVEIKRTVAAPSVFIFPPSDEQLKSGTASVVCLLNNFYPREAKVQWKVDNALQSGNSQESVTEQDSKDSTYSLSSTLTLSKADYEKHKVYACEVTHQGLSSPVTKSFNRGEC
notes: as for B12

The EC50 is the concentration that produces a half-maximal response. High values mean lower potency in that assay, low ones higher potency in that assay.

The target in one experiment is T1, biotin-labeled human PD-1 Fc protein (human, biotin-labeled (site not stated)).
T1 construct: also called PD-1-Fc-biotin
T1 sequence (chain, as listed by the source limits assumed): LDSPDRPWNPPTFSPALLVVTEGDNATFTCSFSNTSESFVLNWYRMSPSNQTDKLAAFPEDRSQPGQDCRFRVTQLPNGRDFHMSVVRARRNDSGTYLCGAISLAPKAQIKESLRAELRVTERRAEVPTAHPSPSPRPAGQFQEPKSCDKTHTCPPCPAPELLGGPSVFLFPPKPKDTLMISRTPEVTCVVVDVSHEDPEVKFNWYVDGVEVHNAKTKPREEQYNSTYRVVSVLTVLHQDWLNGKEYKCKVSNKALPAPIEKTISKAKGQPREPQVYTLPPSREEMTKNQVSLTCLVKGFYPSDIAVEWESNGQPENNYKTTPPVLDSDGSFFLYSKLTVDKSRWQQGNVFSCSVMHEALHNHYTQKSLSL
In words: capture ELISA, antibody captured on plate, biotin-labeled human PD-1 Fc in solution. The procedure:
(§1) Plates were washed 4 times with wash buffer (PBS+0.05% Tween-20, PBST) and then blocked with 200 μl/well blocking buffer (5% w/v non-fatty milk in PBST) for 2 hours at 37° C. […] After a final wash, plates were incubated with 100 μl/well ELISA substrate TMB (Innoreagents). The reaction was stopped in 15 minutes at 25° C. with 50 μl/well 1M H₂SO₄, and the absorbance was read at 450 nm. Data were analyzed using Graphpad Prism software and EC₅₀ values were reported.
(In general: An ELISA detects its analyte on a solid surface through an enzyme-linked reagent.)
Regarding B1, the EC50 came out at 0.28 ng/mL.

For the molecule B2, the EC50 was 0.17 ng/mL.

In turn, B3 had a concentration giving a half-maximal response (EC50) of 0.28 ng/mL.

On to B4, for which the concentration giving a half-maximal response (EC50) stood at 0.21 ng/mL.

B5 came in with a concentration for a half-maximal effect (EC50) of 0.19 ng/mL.

Molecule B6 showed a half-maximal effective concentration (EC50) of 0.32 ng/mL.

The next experiment concerns the target T1, biotin-labeled human PD-1 Fc protein. The experiment is described as above. The source holds these as a separate data set. The procedure: as §1
Turning to B7, the EC50 came out at 0.358 ng/mL.

B8 showed a concentration for a half-maximal effect (EC50) of 0.17 ng/mL.

As to B9, the response was half-maximal at 0.171 ng/mL (EC50).

B10 showed an EC50 of 0.157 ng/mL.

As for B11, the EC50 stood at 0.505 ng/mL.

Another experiment has the same target. The description is as above. The source holds these as a separate data set. On the procedure: as §1
In the case of B12, the concentration giving a half-maximal response (EC50) came out at 0.385 ng/mL.

The molecule B13 displayed an EC50 of 0.55 ng/mL.

The molecule B14 yielded a 50% effective concentration (EC50) of 0.349 ng/mL.

In turn, B15 registered a half-maximal effective concentration (EC50) of 0.379 ng/mL.

The values above are taken from patent US20210095032A1 (SALUBRIS CHENGDU BIOTECH, published 2021).
